In US20190211086A1 (RPEPTIDE, published 2019):

Tests used:
Tau Isoform 412 = biological target: T1, Tau Isoform 412 (human, UniProt P10636 2-758); assay: screening of hybridoma cell lines; assay not given
T1 construct: Obtained as a lyophilized purified isoform; also called tau412

Tau Isoform 381 = biological target: T2, Tau Isoform 381 (human, UniProt P10636 2-758); assay: screening of hybridoma cell lines; assay not given
T2 construct: Obtained as a lyophilized purified isoform; also called tau381
T2 sequence (P10636 other isoform, or with tags, fused parts or gaps limits assumed): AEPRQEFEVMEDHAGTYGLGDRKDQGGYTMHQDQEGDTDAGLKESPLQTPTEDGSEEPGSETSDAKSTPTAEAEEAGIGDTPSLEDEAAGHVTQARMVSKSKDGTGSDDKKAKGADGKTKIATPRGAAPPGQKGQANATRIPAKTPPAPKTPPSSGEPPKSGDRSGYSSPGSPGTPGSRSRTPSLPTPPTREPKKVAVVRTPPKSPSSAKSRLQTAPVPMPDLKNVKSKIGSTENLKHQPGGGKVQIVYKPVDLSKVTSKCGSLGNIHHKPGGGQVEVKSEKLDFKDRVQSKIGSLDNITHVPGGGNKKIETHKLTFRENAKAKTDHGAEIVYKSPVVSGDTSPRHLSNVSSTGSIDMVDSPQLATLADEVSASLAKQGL

Tau Isoform 441 = biological target: T3, Tau Isoform 441 (human, UniProt P10636 2-758); assay: screening of hybridoma cell lines; assay not given
T3 construct: Obtained as a lyophilized purified isoform; also called tau441
T3 sequence (P10636 other isoform, or with tags, fused parts or gaps limits assumed): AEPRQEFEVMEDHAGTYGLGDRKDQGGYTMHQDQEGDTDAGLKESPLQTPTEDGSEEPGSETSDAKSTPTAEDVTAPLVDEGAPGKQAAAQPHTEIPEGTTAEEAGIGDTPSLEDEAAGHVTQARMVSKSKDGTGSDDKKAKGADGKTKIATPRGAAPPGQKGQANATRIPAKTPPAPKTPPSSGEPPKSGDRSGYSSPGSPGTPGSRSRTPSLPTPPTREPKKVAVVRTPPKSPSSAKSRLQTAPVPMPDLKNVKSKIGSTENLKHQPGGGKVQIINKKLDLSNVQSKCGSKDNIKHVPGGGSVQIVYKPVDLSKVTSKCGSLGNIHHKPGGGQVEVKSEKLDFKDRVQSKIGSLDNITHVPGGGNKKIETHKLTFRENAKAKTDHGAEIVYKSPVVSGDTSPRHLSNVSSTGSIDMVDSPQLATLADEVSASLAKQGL

Tau Isoform 410 = biological target: T4, Tau Isoform 410 (human, UniProt P10636 2-758); assay: screening of hybridoma cell lines; assay not given
T4 construct: Obtained as a lyophilized purified isoform; also called Tau 410; tau410
T4 sequence (P10636 other isoform, or with tags, fused parts or gaps limits assumed): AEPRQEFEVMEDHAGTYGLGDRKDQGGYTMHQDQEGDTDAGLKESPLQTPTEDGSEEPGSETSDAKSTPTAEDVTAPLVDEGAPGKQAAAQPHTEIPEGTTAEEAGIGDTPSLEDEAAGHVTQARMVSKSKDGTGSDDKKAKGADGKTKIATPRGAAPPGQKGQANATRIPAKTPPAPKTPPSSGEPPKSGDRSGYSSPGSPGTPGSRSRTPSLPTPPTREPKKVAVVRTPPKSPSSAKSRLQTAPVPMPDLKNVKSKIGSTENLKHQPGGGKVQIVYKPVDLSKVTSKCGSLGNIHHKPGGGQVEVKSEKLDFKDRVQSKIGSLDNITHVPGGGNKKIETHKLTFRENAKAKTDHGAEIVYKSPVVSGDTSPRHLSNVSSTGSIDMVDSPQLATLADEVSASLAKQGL

Tau Isoform 352 [1] = biological target: T5, Tau Isoform 352 (human, UniProt P10636 2-758); assay: not named in the sentence (summary of antibody generation)
T5 construct: Obtained as a lyophilized purified isoform; also called Tau 352; tau352
T5 sequence (P10636 other isoform, or with tags, fused parts or gaps limits assumed): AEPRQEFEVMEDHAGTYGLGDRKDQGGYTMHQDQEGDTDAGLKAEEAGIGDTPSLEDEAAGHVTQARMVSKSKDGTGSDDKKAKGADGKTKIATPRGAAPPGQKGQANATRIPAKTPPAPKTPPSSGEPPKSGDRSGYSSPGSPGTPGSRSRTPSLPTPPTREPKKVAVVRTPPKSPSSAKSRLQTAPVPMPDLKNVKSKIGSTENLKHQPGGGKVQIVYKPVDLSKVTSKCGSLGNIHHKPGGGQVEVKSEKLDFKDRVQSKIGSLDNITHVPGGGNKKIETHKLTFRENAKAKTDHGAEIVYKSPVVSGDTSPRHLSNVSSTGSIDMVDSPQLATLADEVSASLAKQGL

Tau Isoform 383 [2] = biological target: T6, Tau Isoform 383 (human, UniProt P10636 2-758); assay: ELISA, 100 ng or 50 ng coated tau isoform, antibody 1:1,000 and 1:10,000
T6 construct: Obtained as a lyophilized purified isoform; also called Tau 383; tau383
T6 sequence (P10636 other isoform, or with tags, fused parts or gaps limits assumed): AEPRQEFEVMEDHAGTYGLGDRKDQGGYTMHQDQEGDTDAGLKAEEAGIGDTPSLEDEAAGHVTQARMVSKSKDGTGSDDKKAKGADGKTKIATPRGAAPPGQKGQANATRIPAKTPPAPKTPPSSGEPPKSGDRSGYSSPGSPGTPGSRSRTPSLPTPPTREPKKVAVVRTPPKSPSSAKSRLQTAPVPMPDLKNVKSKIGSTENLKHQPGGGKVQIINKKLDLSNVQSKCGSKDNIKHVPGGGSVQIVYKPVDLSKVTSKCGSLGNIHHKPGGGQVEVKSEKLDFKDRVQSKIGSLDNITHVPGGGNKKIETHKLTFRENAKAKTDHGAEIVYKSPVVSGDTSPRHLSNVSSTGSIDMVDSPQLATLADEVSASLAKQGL
Method: More specifically, the 4G11 mAb was tested in an ELISA against 100 ng of each of the Tau isoforms at a 1:1,000 antibody dilution (FIG. 6A); against 100 ng of each of the Tau isoforms at a 1:10,000 antibody dilution (FIG. 6B); against 50 ng of each of the Tau isoforms at a 1:1,000 antibody dilution (FIG. 6C); and against 50 ng of each of the Tau isoforms at a 1:10,000 antibody dilution (FIG. 6D). […] The highest binding levels were found using 100 ng of the tau isoform with an antibody dilution of 1:1,000.
Antibody 4G11 was tested in an ELISA against 100 ng and 50 ng of the six human Tau isoform using antibodies dilutions of 1:1,000 and 1:10,000. Both 4G11 stored at −80° C. as well as a lyophilized form stored at ambient temperature were compared in this assay and the results are provided in FIGS. 6A-D (the left bar for each isoform are the results of the antibody stored at −80° C. and the right bar for each isoform is the lyophilized form, stored at 25° C.

Tau Isoform 352 [3] = biological target: T5, Tau Isoform 352; assay: screening of hybridoma cell lines; assay not given
Tau Isoform 383 [4] = biological target: T6, Tau Isoform 383; assay: screening of hybridoma cell lines; assay not given

Measured: binding result

T1 sequence (P10636 other isoform, or with tags, fused parts or gaps limits assumed): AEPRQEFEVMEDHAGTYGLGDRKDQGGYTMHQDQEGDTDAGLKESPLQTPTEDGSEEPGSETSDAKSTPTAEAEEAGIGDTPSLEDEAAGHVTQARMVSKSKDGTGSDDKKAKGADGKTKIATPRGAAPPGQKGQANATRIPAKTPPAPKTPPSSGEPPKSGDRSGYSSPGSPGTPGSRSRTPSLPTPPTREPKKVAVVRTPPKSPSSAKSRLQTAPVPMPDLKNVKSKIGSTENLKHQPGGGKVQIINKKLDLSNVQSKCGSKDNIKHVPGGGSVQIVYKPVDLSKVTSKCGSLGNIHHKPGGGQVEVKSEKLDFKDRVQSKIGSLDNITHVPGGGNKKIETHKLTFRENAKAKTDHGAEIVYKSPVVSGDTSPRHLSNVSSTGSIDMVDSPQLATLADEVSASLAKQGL

B1: monoclonal antibody 4G11 (antibody, IgA, V domains shown)
VH: EVQLVESGGGLVQPKGSLKLSCAASGFTFNIYAMNWVRQAPGKGLEWVARIRSKSNNYATYYADSMKDRFTISRDDSQSMLYLQMNNLKTEDTAMYYCVRHGNYYFDYWGQGTTLTVSS
VL: ENVLTQSPAIMAASLGQKVTMTCSADSSVSSSYLNWYQQKSGASPKPLIHRTSNLASGVPARFSGSGSGTSYSLTISSVEAEDDATYYCQQWSGYPFIFTFGSGTKLEIK
notes: also called Tau 4G11; mAb 4G11
not listed: Tau Isoform 352 [3] | Tau Isoform 383 [4]
binds: all other assays above

B2: monoclonal antibody 1A6 (antibody, IgM, V domains shown)
VH: DVQLVESGGGLVQPGGSRKLSCAASGFTFSSFGMHWVRQVPEKGLEWVAYISSGSSTIYYADTVKGRFTISRDNPKNTLFLQMTSLRSEDTAMYYCASNQSPTGFAYWGQGTLVTVSA
VL: DVVMTQTPLSLPVSLGDQASISCRSSQSLVHSNGNTYLHWYLQKPGQSPKLLIYKVSNRFSGVPDRFSGSGSGTDFTLKISRVEAEDLGVYFCSQSTHVPLTFGAGTKLELK
notes: Mouse hybridoma antibody (h1A6, ATCC PTA-122038), from a mouse immunized with tau 352; also called Tau 1A6; mAb 1A6
not listed: Tau Isoform 352 [1] | Tau Isoform 383 [2]
binds: all other assays above
